According to publication PMC6192996, “Loss of a conserved salt bridge in bacterial glycosyl hydrolase BgIM-G1 improves substrate binding in temperate environments” (Communications Biology, 2018):

Experiments:
[1] = tested on: O=[N+]([O-])c1ccc(O[C@@H]2O[C@H](CO)[C@@H](O)[C@H](O)[C@H]2O)cc1; assay: purified protein; conditions: 100 mM sodium citrate pH 6.0, 45 °C
[2] = tested on: C[C@H]1O[C@@H](Oc2ccc([N+](=O)[O-])cc2)[C@H](O)[C@@H](O)[C@H]1O; assay: purified protein; conditions: 100 mM sodium citrate pH 6.0, 45 °C
[3] = molecular target: T1, BglM-G1 (marine metagenome, UniProt Z9E642Q5N2); assay: X-ray crystal structure, […] Å, soaked crystals; assay type: binding; conditions: 6 mM ligand soak 24 h, pH 7.5, 18 °C; active site
T1 construct: codon-optimised synthetic gene in pOE, E. coli BL21(DE3); N-terminal MHHHHHHENLYFQGH tag TEV-cleaved, scar GH; theoretical mass 49,874 Da; monomer in solution
T1 sequence (Z9E642Q5N2 16-455 H90R): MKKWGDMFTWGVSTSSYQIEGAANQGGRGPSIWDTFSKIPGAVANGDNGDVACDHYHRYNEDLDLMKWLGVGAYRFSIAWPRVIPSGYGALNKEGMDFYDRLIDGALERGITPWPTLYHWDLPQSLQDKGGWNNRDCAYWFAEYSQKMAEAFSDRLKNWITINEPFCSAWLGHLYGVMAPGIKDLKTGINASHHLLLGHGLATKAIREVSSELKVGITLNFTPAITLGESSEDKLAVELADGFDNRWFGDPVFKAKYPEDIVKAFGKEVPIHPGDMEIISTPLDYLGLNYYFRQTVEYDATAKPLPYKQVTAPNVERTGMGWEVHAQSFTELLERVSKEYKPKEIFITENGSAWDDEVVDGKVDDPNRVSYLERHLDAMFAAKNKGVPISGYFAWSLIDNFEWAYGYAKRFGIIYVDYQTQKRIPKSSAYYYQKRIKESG

| Compound | Km [1] | kcat [1] | kcat/Km [1] | Km [2] | kcat [2] | kcat/Km [2] | X-ray crystal structure, 1.55 Å, soaked crystals [3] |
| --- | --- | --- | --- | --- | --- | --- | --- |
| BglM-G1 (marine metagenome) | 135 ± 16 µM | 55.6 ± 1.5 s⁻¹ | 417000 ± 44000 M⁻¹ s⁻¹ | 88 ± 38 µM | 41.4 ± 3 s⁻¹ | 519000 ± 146000 M⁻¹ s⁻¹ |  |
| OC[C@H]1NC[C@H](O)[C@@H](O)[C@@H]1O [1-deoxynojirimycin] |  |  |  |  |  |  | we co-crystallized the H75R variant with the glucosidase inhibitor 1-deoxynojirimycin |
